# Experimental data: the DeepSol protein solubility set
# Test: soluble on expression in E. coli; label from the status in PepcDB or PDB records
row,Sequence,soluble on expression in E. coli
1,MIRFCSLYSGSSGNAIFLSTGKTKILIDAGLSGKKITEALVSIGEKPSELSAILVSHEHSDHIKGAGIISRKYDVPIYANENTWAAMENLIGPVSVKNKMYFNTGREFEIGDVIINPFPIPHDAVEPVGFNFFVENSKITTATDIGHMNRELLEYIEGSDFLLIESNHDIEMLKVGPYPWPLKKRILGDKGHLSNEMAGKVVAHLAERGTRCFMLGHLSKENNFPELAYETVRNILKERNIDIERDIKLSVALRDKVGQVVEILEHHHHHH,not soluble
2,MDPDKKKMFEVIIKKIQQQSSALEEAMKAQKPKVDCSMSREMCSPSGLIIIMERIYEKEFLADMARLNVLPVDVLTRVSAQDSIATEEAKGRLLNESRDVLSEWLDHNHGKDARDHSVFDDLAKRRIFYLAGPFLQSQWHLECSVISSSAVPAARNIVWNDHLRIRRDAAVAAAAAVNNTAGLADMDQGTRIELPKSKHQWSHQDASRHIKFVKSSVGKFFKKKIIQKFSTGGSQNLFFFYTSVCVQDIALNCTSPFWEINNEYNPVIKFSKIRFPADISVINGFRMPFLKM,not soluble
3,MSLKVGERHYHTIWLNEDGRSVDIIDQRWLPHEFRVVTLKTVADVADAIRDMWVRGAPLIGVTAAYGVAIAMAKDPSDAHLDAVWEELNETRPTAINLRWALNAMREYLRPLPEAERADAAYKRAAEIAEEDVELNRAIGANGLDVIREIASKKKPGEPVRILTHCNAGWLATVDYGTATAPIYMAVEEGIPVHVYVDETRPRNQGAYLTAWEMNGHGVPHTLIVDNAGGHLMQHGDIDMVIVGTDRTTANGDVCNKIGTYLKALAARDNDVPFYVALPSPTIDWTVQDGVKEIPIEERTADEVSFVQGRAADGSIASVRISPEGSPAANPAFDVTPARLITGLITERGIATPSPEGLKALFPERSEGHHHHHH,soluble
4,MGKGLLGKRVAIGGSRKTEEISTIIEKQGGIPVIRPLQGTVYLAEKQVEPDLRTFAEEKADWVIFTTGIGLETLVDMAEKIGLKDEFLQAIRQAKAACRGYKTLSALKKLGITPEASDEDGTTRGLIRSLEPHDFSGKTVMVQLHGEKAPALMAFLEEKGASVLPILPYQHIPPEEETVERLCRELMNDEVDAVCFTTAIQVRSLFDFAKGRGYINEVKKVFEERAIAAAVGKVTAEALREEGITRLLAPEIERMGAMIVELAKYYEEKE,not soluble
5,MRDFLNTKNQTNQSVYLAILRIKMKTPYQIQFEAFNADDFYTEAHAKLYAQFADNLINEGNYSIVYKGVAHACYTPITIDKAPHLKCFVLAPLAVLPEHQGKGYATQLMEQAESELGADVIFVLGDPKHYARRFNAQHNVALPIGSDESPDFWFARELTTDALDGIGQSSSTIKGVFADPIMWSHPDEQI,not soluble
6,SKGRPQIDSSKATDKINPMDFTFVEINEAVKLVEMGVATPQDIDTAIKLGLNRPFGPFELAKQFGAEQIAKRLEELAKQFGKKIFEPAKTLKEGKLEELLKAGKAE,soluble
7,MSTAEQRMDTSEVELPNDNVNEQGNKTPRADQPESSASGARNHGEDEEVTEQVELAAMETEASDSIVDNVPKTPRRAGRPKKLPSTSTAAAESAVTPGKRGRKRKGSESVNTTINSTMNSTLNEPKTPGRKQAKLVAPLLTYDLFAPSIIGDRVLSCGEGEALGHPGRTTTKKPRKVDIFEEEGLKPLQAVAGGVHSAVLTSEGEVYMCGINEKGTVPAEGVEKEGSTDEFAKVKFEEDIEKEGKIVMLAAGASFTAALTDQGSVIAWGNLRNSNGNVDVHPLLHKMQEAPVVIVHQAKRKIVKIAAGENHLVMLDEKGCLLTFGDGEMGQLGRSSRTKTIRSKYMCDESGDHLLVPLRFKHKGKFFDVVAKNVFASGFWTIVHGEDGKYYAFGLNNYAQLGIKVDEADVGQDGQDNRELRVFLPAEAPAFGAERTFVNIEGVQHVVILGSDGKVFAMGKNTDNALGLGNWTGKDDQQHWLYDTIQEIEFDSKIVGVSAKLATSIAWSEDGTAYAWGFDTTGQLGLGLKDEDEKMVSKPEEISSAHLDGYSIIGASISDQHTLIIAKKN,soluble
8,MKLFHRITISLSEDDMKLIEELRRDSGDSLSKIFREAIQLYYNLLKASKAAGVDFRKYFANATRLAFHINGVEQKQFAVIDREIYRVMLKKLQEKVPPESIESDEEFRSAVAGVVKLFEITRDRWSEYTDEQKLEEILTTMEFAGAGTFARVGDKEYIFNTYAESTAITKLIISSVLASAGLKVEIDHTPGKIFIRL,not soluble
9,MAPSSRWDAMGPKNSYRSVHGRIVPELLESSVARVRPLQYVQRQPSQASARSGANPTHRPSAEVRPVIRTGEMTHSSVIPPLAPGVRRVSLGYESSPSGSLPPLFNQESPWRRQDSYSPQNPAVSHKASLNSTILQGPADAGVVGGQSWNRAWEPARGAASWDTWRNKAVVPPRRSGEPMVSMQAAEEIRILAVITIQAGVRGYLARRRIRLWHRGAMVIQATWRGYRVRRNLAHLCRATTTIQSAWRGYSTRRDQARHWQMLHPVTWVELGSRAGVMSDRSWFQDGRARTVSDHRCFQSCQAHACSVCHSLSSRIGSPPSVVMLVGSSPRTCHTCGRTQPTRVVQGMGQGTEGPGAVSWASAYQLAALSPRQPHRQDKAATAIQSAWRGFKIRQQMRQQQMAAKIVQATWRGHHTRSCLKNTEALLGPADPSASSRHMHWPGI,not soluble
10,MVTNRVVFLTGAASGIGYEMGNTFAKEGAKVVITDRLEERAKEAAEQLQKEGFQAIGLKCDVTSEEEIEASISQTVNHFGSLDILINNAGMQHVSPIEDFPTEKFELLIKIMQIAPFIAIKHAFPIMKKQKYGRIINVASINGLVGFAGKAAYNSAKHGVIGLTKVAALEGATHGITVNALCPGYVDTPLVRNQLQDLATTRNVPLENVLEDVIYPLVPQKRLLQVQEIADYAMFLASEKAKGITGQAVVIDGGYTAQ,not soluble
11,MTPFAEAVRQLRERKGVTQKEMAAAIGVSPAYLSALEHGKRGKPSFDLLQRIAGYFNIIWDEAEELFFLAGSSDPKVVIDTVGLPPQYTAFANRLARDIRKLPPSVVEELSAVLQKSRSCD,not soluble
12,MSLDNFLTTGFLDIIPLSQPLEFRREGLQHGVLDKLRSGKYPQQASLNLLRQPVEECRKMMFSFIQQAMADGLRNVLIIHGKGREDKSHANIVRSYVARWLTEFDDVQAYCTALPHHGGSGACYVALRKTAQAKQENWERHAKRSREGHHHHHH,not soluble
13,MTSNDSSENLRNRLAEKMAGDITLSEKPGESLKKWRLNFEISQTDIANYLKVSPSVISDYESGRRKSPGTLIVRKIVESLLEIDLERGGKKIHTYETMLNAESGSKSIYSTYEYTLPIQLAKLVNLIEGDIVYKGIEKPLYGFSVVDSQRAILELSSHEFQKLYGWSTDRAMIFTKVSTGKSPLVAIRVTNLKPGAVVLHGLRKEEVESVAVKMAEVDRVPLVATTMDLDQIVQLLKKYSQYYARE,not soluble
14,MGSDKIHHHHHHMHLDLLICSKPFIFNKVVDTKPFYQRTIMYKHTVSQHVFTFDSLTELMAKASPLRSGDQLAGIAAGSYQERIAAQMALADLPLTTFLQEPLIPYESDEVTRLIFDTHEHTAFTAIAHLTVGDFRNFLLSNNTHTSQLTALQKAITPEMAAAVSKIMNVQDLILVSSKCEIITRFRNTIGVKGCMSTRLQPNHPTDDLKAIMASVLDGLFYGSGDAVIGINPATDHISTQVQLLKLIDAVREQYAIPTQSCILSHITNTILAIEQGAPVDLVFQSIGGTEKTNSSFGINLSLLQEGYEAALSLGRGTIGNNVMYFETGQGSSLSANAHYGIDQQTLEARAYAVARAFNPLLVNTVVGFIGPEYLFDGKQIIRAGLEDHFCGKLMGLPMGCDICYTNHADADQDDMDALLTLLGVAGCNFIMGVPGSDDIMLNYQSTSFHDALYIRKLLNVKPAPEFEEWLLKMGIMNTQHEITVHRIYCG,not soluble
15,KEMRQQVPATIKGPTEEYEYYMELMALLNNLLETARSRGFKFLDSHIEAPEQSSIFLMYPLVSEDHRLISFITDNLRLMAMGQMSPHELEGLLEQEIEAIQNELLLPSRSLQRTAE,not soluble
16,MAHHHHHHMSEAALKREIALQEASDVVDNKSRVLPKSPADTRERTHEVVAATEPFEHPISLRSKVSAYVTLALLFLFARLRESYRQFFPNDESHVRPGYAPIVKDFDHYWNRRFYRRVRDCFMRPIDSRPSRVIGVMERVSKDNNQTFEYSGRIVPAVNMGSYNYLGFAEDTQSITHEVLDSIDDYGLASCSAPQGLGQSALVSRLEHEFAEFLGKEDAIVCGMGFATNFRGLPTLFGKETLVLSDSLNHSSLVNGVRSSGAKVKVFQHNHFGQVEKCLREGVVLGQDPCGEYKPYKRIVIIIEGIYSMEGEIVNLKKFVELKKKYKALLFVDEAHSIGAIGRTGRGVCEHTGVDPKDVDVLMGTFTKSFGSIGGYIAADKTLVRYLRQHSSIALHCDPLAPPCAQQVLSVLHVLLGKDGTDLGEKRIRQLKDNSSFFRRGLMDLGLVVLGDDSSPVVPVMCYSIGRLSALSRLCLERGVAIVIVGYPATPLLQGRVRFCVSACHTREDLQRTLDVIRELKGYVCMEDSTNPLR,not soluble
17,MGSDKIHHHHHHMSKAMISRENYLQQLIQFKDTDFIKVISGVRRSGKSVLLMQYRDYLQQQGIASENILYLNFESFEYQWVKDAQDFQQLIQEKMPSSQEKIYFLIDEIQFVEGWQKIVNALRVSFNTDIVITGSNANLLSGELATLLSGRYVEIKIYPLSFKEFLHAKNVDSQSRLVDKLYSEYEKYGGFPSVVMADEPLKETILSGIFDSIVLNDIAHRAGVKDTHILKSVILFLADNVGQLVNPSKISNTLTSERVPTSNHTISKYLDLLENAFLFYKAKQYDIRGKGYLKTNAKYFIVDNGLRRHAIGKKGANYANRLENIVFIELLRRGYSVDVGKLDSKEIDFIARKADEILYVQVAFEIPENTHETDNLLHIKDNYKKILITGKYYEQTEIDGIEVIYVVDWLLQ,not soluble
18,MNERLKEKLAVLPEQPGCYLMKDKHGTVIYVGKAKSLKERVRSYFTGTHDGKTQRLVEEIADFEYIVTSSNAEALILEMNLIKKHDPKYNVMLKDDKSY,soluble
19,MESLKSNLFLTREAYLEAFETIMTPLKTAILTSEKPGVNFGSSGAVYDQQHAEMEALIRPLWGIGPYWVTCKDDVLRDAYVEKLIAGTDPSSPDYWGVIVDYDQYIVEAAALSLTLLLHKTYFWSCFSEKQQENIMVWLNKALGCKIPKNNWTFFKVLIRLALEGCGQVINQAELEEELALIECMYLGDGWYMDGKTTQRDYYISFAFHYYSLIYVKFMRERDPIRAKRFTERAVMFAQDYLYYFDEEGEALPYGRSQTYRFAQGAFFAALIFAEVEALPWGQIKTLLAKHLHCWMQQAIFTYDGRLSIGYHYENLVMAEGYNAPGSPYWAFKTFLLLAVDQDHPFWRAEPLAIKREEKRLEHHHHHH,not soluble
20,DGSPAATPEIRVNHEPEPAGGATPGATLPKSPSQLRKGPPVPPPPKHTPSKEVKQEQILSLFEDTFVPEISVTTPSQPAEASEVAGGTQPAAGAQEPGETAASEAASSSLPAVVVETFPATVNGTVEGGSGAGRLDLPPGFMFKVQAQHDYTATDTDELQLKAGDVVLVIPFQNPEEQDEGWLMGVKESDWNQHKKLEKCRGVFPENFTERVP,soluble
